Assay results as given in PMC4643876, “Picomolar Inhibition of Plasmepsin V, an Essential Malaria Protease, Achieved Exploiting the Prime Region” (PLoS ONE, 2015).
Like-named read-outs stand apart in the source and are kept apart here. Ends that are not written are not given here. * marks the point of attachment. Biotin = O=C1N[C@H]2[C@H](CS[C@H]2CCCCC(=O)*)N1; Octanoyl = CCCCCCCC(=O)*; GABA = NCCCC(=O)O

What was measured:
[1] = molecular target: GFP-tagged Plasmepsin V (PmV-GFP), P. falciparum clone DC6 (Plasmodium falciparum)
Chain of GFP-tagged Plasmepsin V (PmV-GFP), P. falciparum clone DC6 (Plasmodium falciparum) (Q8I6Z5 whole entry): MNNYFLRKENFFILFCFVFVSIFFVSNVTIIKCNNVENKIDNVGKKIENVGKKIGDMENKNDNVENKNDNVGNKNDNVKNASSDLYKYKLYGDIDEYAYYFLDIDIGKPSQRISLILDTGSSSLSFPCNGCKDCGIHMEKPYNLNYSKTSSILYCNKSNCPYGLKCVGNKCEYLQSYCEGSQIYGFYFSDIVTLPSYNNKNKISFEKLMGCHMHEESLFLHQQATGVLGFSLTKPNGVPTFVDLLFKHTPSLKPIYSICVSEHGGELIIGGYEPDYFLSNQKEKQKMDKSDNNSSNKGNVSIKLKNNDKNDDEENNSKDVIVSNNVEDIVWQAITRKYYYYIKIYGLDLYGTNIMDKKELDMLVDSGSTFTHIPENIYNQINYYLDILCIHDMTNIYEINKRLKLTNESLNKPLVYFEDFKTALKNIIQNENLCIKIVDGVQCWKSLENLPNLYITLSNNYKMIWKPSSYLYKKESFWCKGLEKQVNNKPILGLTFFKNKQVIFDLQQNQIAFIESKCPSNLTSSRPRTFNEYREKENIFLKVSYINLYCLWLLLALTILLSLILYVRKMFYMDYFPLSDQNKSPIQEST

[2] = molecular target: GFP-tagged Plasmepsin V (PmV-GFP), P. falciparum clone DC6 (Plasmodium falciparum); remark: listed apart in the source
[3] = molecular target: GFP-tagged Plasmepsin V (PmV-GFP), P. falciparum clone DC6 (Plasmodium falciparum); remark: listed apart in the source

Row | Binder | IC50 of inhibition of PmV cleavage of the fluorogenic HRPII-PExEl substrate [2] | further results
1 | Octanoyl-RLLYEA (not fully specified) [Compound 37a (octanoyl group at the N-terminus of Compound 7a)] | – | IC50 of inhibition of PmV cleavage of the fluorogenic HRPII-PExEl substrate [1]: 0.023 nM
2 | RLLYEA [Compound 37b (R epimer of Compound 37)] | 1.57 nM | –
3 | {Biotin-GABA-GABA}-RLLAEA (also: hydroxyethylamino (HEA) isostere replaces P1 Leu-P1' Ala peptide bond) [Compound 36, a biotinylated version of Compound 1] | – | in vitro inhibitory activity (IC50) against PmV cleavage of the fluorogenic HRPII-PExEl substrate [3]: 42 nM
4 | RLLAQA [Compound 8b (R epimer of Compound 8, glutamine in P2')] | 188 nM | –
